# According to patent US20060193771A1 (US Dept. of Health and Human Services, published 2006):
# Where a chain is given by its changes, count along the chain named.
# T1: recombinant soluble CD30 (sCD30) produced in E. coli (human)
# T1 construct: also called soluble CD30 made in E. coli; extracellular domain of CD30 with His-tag
# T1 chain: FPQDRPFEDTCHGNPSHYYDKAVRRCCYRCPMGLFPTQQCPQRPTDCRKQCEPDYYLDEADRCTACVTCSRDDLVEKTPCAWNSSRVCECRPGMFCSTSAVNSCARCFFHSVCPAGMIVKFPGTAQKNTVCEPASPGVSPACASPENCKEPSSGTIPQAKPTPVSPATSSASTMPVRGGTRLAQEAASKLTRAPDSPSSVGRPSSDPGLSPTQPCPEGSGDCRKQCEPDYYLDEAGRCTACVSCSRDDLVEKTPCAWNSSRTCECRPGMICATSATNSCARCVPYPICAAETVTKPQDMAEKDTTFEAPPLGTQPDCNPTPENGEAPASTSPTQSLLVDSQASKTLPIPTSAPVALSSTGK
# T2: CD30-Fc (human)
# T2 construct: also called extracellular domain of CD30 fused with human IgG Fc
# T2 chain: T1 chain
# T3: human CD30, native, expressed on cells (human)
# T3 construct: also called native CD30; CD30 on L540, L428, A431/CD30, Karpas299, SUDHL-1 and other CD30-positive cells
# T3 chain: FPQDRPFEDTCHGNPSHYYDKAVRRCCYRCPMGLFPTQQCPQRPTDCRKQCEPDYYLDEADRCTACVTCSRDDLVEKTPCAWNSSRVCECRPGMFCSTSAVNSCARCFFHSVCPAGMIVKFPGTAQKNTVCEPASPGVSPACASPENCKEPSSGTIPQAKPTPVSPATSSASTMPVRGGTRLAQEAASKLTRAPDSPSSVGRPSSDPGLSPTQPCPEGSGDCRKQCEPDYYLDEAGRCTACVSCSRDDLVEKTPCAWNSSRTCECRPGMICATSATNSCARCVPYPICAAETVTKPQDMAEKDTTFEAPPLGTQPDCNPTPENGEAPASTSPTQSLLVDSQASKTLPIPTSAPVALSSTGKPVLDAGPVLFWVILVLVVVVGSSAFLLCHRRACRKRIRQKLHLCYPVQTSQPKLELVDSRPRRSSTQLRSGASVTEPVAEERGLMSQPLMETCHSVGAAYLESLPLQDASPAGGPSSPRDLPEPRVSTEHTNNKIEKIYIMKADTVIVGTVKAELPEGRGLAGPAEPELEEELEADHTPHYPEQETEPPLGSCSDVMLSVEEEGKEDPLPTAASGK
# B1: T6 MAb (antibody, V domains shown)
# VH: QVQLKESGPGLVTPSQSLSITCTVSGFSLSKYSIHWVRQPPGRGLEWLGMIWGVENTDYNSALKSRLSISKDNSKSQVFLKMNSLQSDDTAMYYCARKDLGLYGMNYWGQGISVTVSA
# VL: DIVMTQSQKFMSTSVGDRVSVTCKASQNVGTNVAWYQQKPGQSPKALFYSASYRYSGVPDRFIGSGSGTVFTLTISNVQSEDLAEYFCQQYNTYPLTFGSGTKLEIER
# B2: T13 MAb (antibody, V domains shown)
# VH: QVQLQQSGAELAKPGASVKMSCKASGYTFTTYWMHWVKQRPGQGLEWIGYINPSTGYTDYNEKFKDKATLTADKSSSTAYMQLSSLTSEDSAVYYCVRRGSYDGNPFAYWGQGTLVSVSA
# VL: DIVMTQSHKFMSTSVGDRVTITCKASQDVSTAVAWYQQKPGHSPKLLIYWASTRHTGVPDRFTGSGSGTDYTLTISSVQVEDLALYYCQQHYSTPFTFGSGTKLEIKR
# B3: T24 MAb (antibody, V domains shown)
# VH: QVQLQQPGAELVRPGASVKLSCKASGYSFTSYWIDWVKQRPGQGLEWIGNIYPSNAYTNYNQKFKDKATLTVDKSSSTAYMQLSSPTSEDSAVYYCTSVLDYFYAMDYWGQGTSVTVSS
# VL: DIQMTQTTSSLSASLGDRVTISCRASQDISNYLNWYQQKPDGTVKLLIYYTSRLHSGVPSRFSGSGSGTDYSLTISNLEQEDIATYFCQQVNTLPRTFGGGTKLEIKR
# B4: T25 MAb (antibody, V domains shown)
# VH: QVTLKESGPGILQPSQTLSLTCSFSGFSLNTSGVGVGWIRQPSGKGLEWLAHIWWDDDERYNPVLKSRLTISKDTSSNQVFLKIANVDTADSATYYCVRSMVAWFPYWGRGTLVTVSA
# VL: DIVMSQSPSSLAVSVGEKFTVNCKSSQSLLYSSNQKNFLAWYQQKPGQSPKLLIYWASTRESGVPDRFIGSGSGTDFTLTISSVKAEDLAVYYCQQHYRYPWTFGGGTKLEIKR
# B5: T420 MAb (antibody, V domains shown)
# VH: QVQLQQSGAELAKPGASVKMSCKASGYTFTSYWMHWVKQRPGQDLEWIGYINPSTDYTDYNQKFKDKATLTADKSSSTAYMQLSSLTSEDSAVYYCATRHYGSSYGFAYWGQGTLVTVSA
# VL: B2 VL with T20S, H42Q, T72S, V80A, L85V, S93R
# B6: T105 MAb (antibody, V domains shown)
# VH: QVTLKESGPGILQPSQTLSLTCSFSGFSLSTSGMGVSWIRQPSGKDLEWLAHIYWDDDKRYNPSLKSRLTISKDTSSNQVFLKITSVDTADTATYYCARRADGLYFYLDVWGAGTTVTVSS
# VL: B1 VL with G30N, K45E, F48I, I63T, V70D, T93S, E107K
# B7: T427 MAb (antibody, V domains shown)
# VH: QVQLQQPGTELVRPGASVKLSCKASGFSFTSYWMNWVKQRPGQGLEWIGMIHPSDSETRLNQKFKDRATLTVDKSSSTAYMQLSSPTSEDSAVYYCASEMDYYFAMDYWGQGTSVTVSS
# VL: DIVLTQSPTSLAVSLGQRATISCRASESVDSYGNSFMHWFQQKPGQPPKLLIYRASNLESGIPARFSGSGSWTDFTLTINPVEADDVATYYCQQSNEDPRTFGGGTKLEIKR
# B8: T201 MAb (antibody, V domains shown)
# VH: QVQLKESGPGLVAPSQSLSITCTVSGFSLIDYGVSWVRQPPGKGLEWLGMIWGDGNTDYNSGLKSRLSISKDNSKSQVFLKVNSLQTDDTARYYCARPSTGTLFAYWGQGTLVTVSA
# VL: EIVLTQSPTTMAASPGERITFTCSASSGISSIYLHWYQQKPGFSPKLLIYRTSNLASGVPPRFSGSGSGTSYSLTIGTMEAEDVATYYCQQGSSIPLTFGAGTKLELKR
# B9: T405 MAb (antibody, V domains shown)
# VH: QVQLQQIGAELVRPGASVKLSCKASGYTFNNYWINWVKQRPGQGLEWIGNIYPSDSRSNYNQKFKDKATLTVDKPSSTAYMQLSSPTSEDSAVYYCTLGSYWGQGTLVTVSA
# VL: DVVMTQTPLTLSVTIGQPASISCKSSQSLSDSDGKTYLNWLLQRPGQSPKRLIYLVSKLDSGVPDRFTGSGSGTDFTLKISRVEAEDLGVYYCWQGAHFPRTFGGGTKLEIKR
# B10: T408 MAb (antibody, V domains shown)
# VH: B9 VH with I7P, N30T, N31S, R57Y, P75S
# VL: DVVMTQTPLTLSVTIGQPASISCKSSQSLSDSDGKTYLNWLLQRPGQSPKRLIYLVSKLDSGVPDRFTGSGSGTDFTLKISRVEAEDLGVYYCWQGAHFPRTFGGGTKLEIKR
# Target: T1, recombinant soluble CD30 (sCD30) …
# Assay: indirect ELISA, sCD30 coated
# Protocol: (§1) ELISA. The binding of anti-CD30 MAbs to sCD30 and CD30-Fc was assayed by indirect ELISAs. Microtiter plates (Costar, Cambridge, Mass.) were coated with 20 ng/well of sCD30 or CD30-Fc in PBS overnight at 4° C. After blocking with 0.5% of BSA in PBS, hybridoma supernatants or purified MAbs were added to the coated wells and incubated for 2 h at room temperature. The bound MAbs were detected with alkaline phosphatase (ALP)-labeled anti-mouse IgG (BioSource, Camarillo, Calif.) and p-nitrophenyl phosphate as the substrate.
row,Binder,titer in ELISA
1,B1,74.1 mL/µg
2,B2,87.7 mL/µg
3,B3,102 mL/µg
4,B4,135 mL/µg

# Target: T2, CD30-Fc
# Assay: indirect ELISA, CD30-Fc coated
# Protocol: as §1
row,Binder,titer in ELISA
1,B1,40 mL/µg
2,B2,91.2 mL/µg
3,B3,179 mL/µg
4,B4,50 mL/µg

# Target: T2, CD30-Fc
# Assay: affinity of the MAb; ELISA using CD30-Fc
# Protocol: (§2) In one type of ELISA (CD30-Fc ELISA), microtiter plates were coated with 25 ng/well of CD30-Fc. Culture supernatants of hybridoma were added to the coated wells, and bound MAbs were detected with HRP-labeled rat anti-mouse kappa chain monoclonal antibody. A different format of ELISA. Ig-trap ELISA, was also carried out. MAbs were captured by anti-mouse IgG coated on the plates, and then reacted with various concentrations of CD30-Fc in solution. The bound CD30-Fc was detected with HRP-labeled goat anti-human Fc antibody.
# (§3) Determination of affinity: Each MAb was titered in the CD30-Fc ELISA described above and an appropriate dilution for each MAb was selected from the liner range of the titration curves. […] The free MAb concentration in each equilibrium reaction was measured by the same ELISA using standard curves. No re-equilibrium occurred during the ELISA because of the small amounts of coated CD30-Fc and the short time of incubation. The CD30-Fc concentration giving half free MAb was the Kd.
row,Binder,Kd
1,B1,13 nM
2,B2,3.1 nM
3,B3,2.2 nM
4,B4,6.4 nM
5,B5,1.9 nM
6,B6,4.2 nM
7,B7,0.9 nM
8,B8,8.3 nM
9,B9,5.7 nM
10,B10,6.4 nM

# Target: T3, human CD30, native, expressed on cells
# Assay: FACS, L428 cells, MAb 5 µg/ml, control HeFi-I
# Protocol: (§4) FACS Analysis. FACS analysis was performed to measure the binding of the MAbs or immunotoxins to native CD30 expressed on various cell lines. […] After incubation for 1 h at 4° C., the cells were washed twice with the same buffer and incubated with FITC-labeled goat mouse IgG (BioSource). After washing, the cells were suspended in 1 ml of the buffer, and the fluorescence associated with the live cells was measured using a FACS Calibur flow cytometer (Beckman Coulter, Fullerton, Calif.).
# (§5) The binding activity of the MAbs to native CD30 on cells was measured.
row,Binder,relative reactivity in FACS (% of control)
1,B1,140 % of control
2,B2,180 % of control
3,B3,160 % of control
4,B4,80 % of control

# Target: T3, human CD30, native, expressed on cells
# Assay: FACS, L540 cells, MAb 5 µg/ml, control HeFi-I
# Protocol: as §4, §5
row,Binder,relative reactivity in FACS (% of control)
1,B1,111 % of control
2,B2,111 % of control
3,B3,117 % of control
4,B4,27.8 % of control

# Target: T2, CD30-Fc
# Assay: ELISA using CD30-Fc (equilibrium in solution)
# Protocol: as §2, §3
row,Binder,Kd
1,B1,13 nM
2,B2,3.1 nM
3,B3,2.2 nM
4,B4,6.4 nM
5,B5,1.9 nM
6,B6,4.2 nM

# Target: T3, human CD30, native, expressed on cells
# Assay: competitive FACS on L540 cells, unlabeled MAb 2.5 µg/ml; competitor: biotin-T6
# Protocol: as §4
# (§6) These MAbs were further characterized for their topographical epitopes by a competitive binding assay using FACS analysis. […] Some of the MAbs were biotinylated as the indicators and incubated with L540 cells in the presence of various concentrations of unlabeled MAbs as the competitors.
row,Binder,inhibition of the binding of biotin-MAb (%)
1,B1,100%
2,B2,87.4%
3,B3,1.5%
4,B4,1.5%

# Target: T3, human CD30, native, expressed on cells
# Assay: competitive FACS on L540 cells, unlabeled MAb 2.5 µg/ml; competitor: biotin-T14
# Protocol: as §6
row,Binder,inhibition of the binding of biotin-MAb (%)
1,B1,108%
2,B2,108%
3,B3,16.1%
4,B4,-1.3%

# Target: T3, human CD30, native, expressed on cells
# Assay: competitive FACS on L540 cells, unlabeled MAb 2.5 µg/ml; competitor: biotin-T24
# Protocol: as §6
row,Binder,inhibition of the binding of biotin-MAb (%)
1,B1,3.9%
2,B2,40.1%
3,B3,82.8%
4,B4,0%

# Target: T3, human CD30, native, expressed on cells
# Assay: competitive FACS on L540 cells, unlabeled MAb 2.5 µg/ml; competitor: biotin-T25
# Protocol: as §6
row,Binder,inhibition of the binding of biotin-MAb (%)
1,B1,25%
2,B2,26.7%
3,B3,97.8%
4,B4,79.8%

# Target: T3, human CD30, native, expressed on cells
# Assay: competitive FACS on L540 cells, unlabeled MAb 2.5 µg/ml; competitor: biotin-HRS-4
# Protocol: as §6
row,Binder,inhibition of the binding of biotin-MAb (%)
1,B1,97.9%
2,B2,82.6%
3,B3,52.2%
4,B4,0%

# Target: T3, human CD30, native, expressed on cells
# Assay: competitive FACS on L540 cells, unlabeled MAb 2.5 µg/ml; competitor: biotin-HeFi-I
# Protocol: as §6
row,Binder,inhibition of the binding of biotin-MAb (%)
1,B1,0%
2,B2,0%
3,B3,79.8%
4,B4,0%
